This note sets out measurements from the domain aggregation screens of Martell et al. (2025).

The nature of this data set: soluble fraction after stress (log2 fold change); higher = more stays soluble; pooled small domains, quantitative proteomics. To be noted: stress: 50 degC. The gist of the method: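 After stress at 50°C, the amount of each protein still soluble was measured. This was done on pooled custom libraries of small protein domains, using high-throughput quantitative proteomics. The figure given is a base-two log fold change and stands for aggregation propensity, with higher values meaning more protein stays in solution.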
Consider “HMSKIRTFRVKTVAVDQAYQVLKDYSPIKISTESNAVIIDLDESKTPAEIAGYLEKNGIKVDNIEVIAESE”, for which the “soluble fraction (log2)” value came to 0.179.
The same measure for “HMSDESALLELVKQIIADNPKAVEEIRAGKEKAMGFLIGQAMKASRGSANPQIISRLVREQLG”: 0.128.
For the sequence “HMKESRLFRILYYLLQHKKATAPELAEEFEVSVRTIYRDIDYISSAGVPIYATQGKDGGIAILDSF”, the “soluble fraction (log2)” value was -0.65.
As to “HMIEEIAVPEILGMQEEEAKAKIEGLGLVFNVTDRVKSNEYEKGEVMYQSVGPDDTTVKSGYPINVTISEG”, the “soluble fraction (log2)” value was -0.0543.
“HMGEGTAVGKALKFLAAQGKKFAPELLDMAGSLTGVEALSKLGDAIKGDPELSELDKRILLAELETDAV”: the “soluble fraction (log2)” value is -0.0713.
“HMNEFAYLIKISPEHNNNRYYRMVAEGDNFRIEMGRIGASPVQMKRPMYLWNETYQKKLQEGYTDRTSYTS”: the “soluble fraction (log2)” value was -1.92.
Consider “HMAAHHIILEEREQLSVSGVEEVESFDENTIVMLTNRGTLIVRGEELHIEKLSLDGGDLRVEGSIDSLTYE”, for which the “soluble fraction (log2)” value is -0.274.
On to “HMSATEPVHFDPNKSPEDMTVEELQAGILAKMANNGPVSDQMKKTVNENIWHDSLVNWLKSF”, for which the “soluble fraction (log2)” value came out at 0.0373.
For “HMGSLPPPKDGTTIYVVKPGDSLWRISGKFFGNPLFWPRLWEINPNIDNPNKIYPGDVISLKP”, the “soluble fraction (log2)” value is 0.00421.
On to “HMIKITLPDGSVKEYKKGITPAEVAQSISEGLARNVISASYNGKTIETVTPLTTDGSLVLYTWDSPEGK”, for which the “soluble fraction (log2)” value came to 0.193.
In the case of “HMGLVDSLEPLLRRVYEALPQRRSMTTERLAVAAGLDEESVKVALARLQLSAFVGVDERGWHRSL”, the “soluble fraction (log2)” value was -1.11.
For “HMHGEAEFLDATAVVMEKLNPGGLVKIKGEIWQAVSKDGHTIQEGEKVRVFERQGITLLVGHF”, the “soluble fraction (log2)” value is -0.171.
The value for “HMIHFDHPERSILDTMLYEKKGMTAQSARNRLAAYQFQGEDVFKPVSVLSGGELSRITLAIKNAMADK” was -0.186; that for “HMDYKSKLQELVQTEKRTVEYKLVDESGPAHNKSFTFEVVISGIKYGSGTGASKKIAEQNAAKEALEKLA” was -0.0871; that for “HMVDDTGLPTVLISDGRLLERNLHRLHLDHTWLQRRLEENNIPSIQSLFLLTVDKQHQLYFLKK” was -1.21.
As to “HMENKIIKNAAHATLKVKKDAGIEITTELIREAVILFHRIYSPNDNPNINWERIINELESHYT”, the “soluble fraction (log2)” value was -2.77.
The value for “HMLTGNTAKLFAHLVEVMNPKEFVKINRQTVIVEAGIPRGSVGAAIAKLLETGHLIANASGAYKLT” was 0.322; that for “HMQQFGANVRLIRKARQMSIKQLSELSGVSQTMISEVERGLKIPTIDVAGKIAAALGIDLTNLMG” was -0.465; that for “HMSNEEEIEGLVSKVLDNNPEIVERIRSGEDKLISYLVGEVMKQSSSSLNPGIVKEIIVNKTI” was 0.161.
Take “HMGERMELTLDNPREAIPVLDAMGFANYQVVDKEHIHIFERLNESALVNMELAKAGIPVKGISITSE”: the “soluble fraction (log2)” value worked out at 0.018.
Take “HMLNMTLGDRIRSRREELRMSQEELATRLGYKSRSTIAKIESGENDLTQSKIVAFAEALSTTARWLLDY”: the “soluble fraction (log2)” value was -1.04.
Regarding “HMVAMYLRVGISNGRRYLSIVQGYRDQVTKKVRHNTVKSLGYLDDLEKHYPDPIAHFKAVVEEMNKKQALE”, the “soluble fraction (log2)” value is -0.847.
The value for “HMSLMHEESLKNIRRFINSLPESLRTAFTLREQDGLSYEEIGVITETPIGTVRSRIFRAREAILEHIKKEL” was -2.24; that for “HMKPALFSADELNRLYRYGLSLTGERDRAYDLLQTALEKYLRQSQAPANAMRYVRKIMHNQFIDDYR” was -1.13.
With “HMFQYEKIKDYILTGLEEGTWQAGDKIPSEAELVMSLNVSRMTVNRAVRELANSGLLVRIPGAGTFVATE”, the “soluble fraction (log2)” value is -0.575.
The same measure for “HMNDGTIRVGTNVTIKPSAKRWATGQNIYYGVKGKTYKVIQMNGNRLLLDKVISWINKGDVYVPGS”: -0.501.
The value for “HMTDGLTVPMQGVVIRYKAKKGDKVAVGDAVAVLEAMKMEQNIFANKSGTIKEIYIKEGTTVTPGDVLMSI” was -0.0052; that for “HMTKPTLMEVEIKGAIQNPGVYTLKRNSSISKLIKMSGPLLENADTSSISFTHILQDKDVVVIPEIK” was -0.262; that for “HMADKSLLELPGLDGDKVSALVTAGVRNVNDLADLATDELVEKTGFDEKTAADLIIAARAVVY” was 0.331.
As for “HMELLSVPSRLGTFFLGGEAGHIIRLYLPGDPTPRIAEHETPVLSEARRQLLEYLAGRRTAFSFPL”, the “soluble fraction (log2)” value was -0.139.
On to “HMTKGVKVEIGTEEASVDLYVVMEYGTPIQKAAYDAQESVRKAIETMTNLHVVRVDVHVQGVSF”, for which the “soluble fraction (log2)” value is -0.134.
With “HMESYDSEIKEVLDLAGKGRWEEAQTKADALREMAPNNSLVERLHGWVLQAAHQRREQALENDIRE”, the “soluble fraction (log2)” value is 0.286.
The value for “HMSNPADDVVDLLRQLRLPHMRAAAPELLATAKAQRWDPAEAIRALLTEELAGRQASSINARRK” was -0.406; that for “HMLARPTANELVKEMQRRAKEQRTELPPDAARDLLERSGQDQFLLGNEVDKLAALSGYTTITREMVAQAGT” was 0.186; that for “HMKLIRLGKAAGELNVGMSTLAEFLQSKGHSVDPNPNTKLTPEQYALLRMEFAADQTLKKLTKQP” was 0.198.
In the case of “HMKKTPLSELTNRAVELFIETVFMERNYSVSSQRQFISALKIFTVFYPQTKIHNLSLERLQSSFDKLLN”, the “soluble fraction (log2)” value was -0.452.
The same measure for “HMHNSPSPVATTILRFLQPVRAFVGDTEDMRTFGPFLREDVAMVPASQAKNLIRSGHAVEINP”: -0.0361; for “HMNLTEIGQRIRDRREELGLSQDRLAKLGGLPRVTINQLETGSIGDLGVSKLLNLLDLLGLTLDA”: -0.108.
Regarding “HMAISSADRIVAELRTWISGASPGTQLPSSRTLAARYGASPVTVQKALHTLAGMGLVEARPGAGTFVRRQS”, the “soluble fraction (log2)” value is -0.189.
With “HMLSYFKIIKNGLVREGPASYYKIAENLEIGTIVQAFEKHDDWYLIKTHSGRIGWIVASDVTPQV”, the “soluble fraction (log2)” value is -0.245.
The same measure for “HMNKEVDLPNFVGMTKENAQAQADKIKIKLEFEEEYSSDVEEGKIISQNPEYKENYKIKEKSTVSLKI”: 0.118; for “HMANDNFPLKLGSKGPRVLQLKTMLIQSLSNDALPKGRSSDAFDSELEALLSRNNLPTVIDETNFRVLTK”: 0.386.
The value for “HMKGTSIELIVPQDIAGLRLDQVLAKLLPQWSRSRLQSWINEKHITVNGQTTTAKQKLWGNETIQIIPPI” was -0.66; that for “HMTKEEFLDEIKKELGFMPYEEVIKAEKYFESYFNGSEADEKVIERFGSPKYAAQNYYRTHVAN” was -0.0965; that for “HMGLNPSILVKLGNANIKTIDNLADLASDELKEILEDISITSKEADEIIMRARSSWFEEDDKKEDNI” was 0.0789.
“HMRIYTKDEYLAELSRYLHKLPQDDYESAMAYFREYFEEAGPENEAQAMRDLGTPKEAASEILQNLLH”: the “soluble fraction (log2)” value was -0.305.
On to “HMEYDYKVIDFFKDYYSYLNYQEIEPNILDKQLTTLTEEESAKIAGIMKLDYEDFTRGIEIVTGS”, for which the “soluble fraction (log2)” value was -0.195.
Consider “HMQELNDQQRLAILNEWNNRATNPPSLLELVRVAFPDAEGADGRSWHGKKVKEFLSTRQIKARAS”, for which the “soluble fraction (log2)” value was 0.119.
The same measure for “HMDSLNWVEKIINTLPEQQRLIIQMRDIEQYEFAEIAKILEMNETAIRVALSRARKTIREFMIKTH”: -1.07; for “HMEILTLEELKRLMAKAKLKQNQISGHAGVSKQQISMILAGKRNITKDVSDNLKANLAEYFP”: -0.462; for “HMEPESTMIEISETLTNERLDRYLATKLPNVSRGGIQRLLREGNILVNGKKAKPTQHPVAGQKIEITWPNP”: 0.0857.
Regarding “HMISLPSYIREEATEVYNRLHDLGLEYTSLDVNDDSIPKGYVVRTVPEAGASVPAGQVVTVYVSLG”, the “soluble fraction (log2)” value is -0.446.
Turning to “HMQADPYTVLGVLRDVTDGELKREYRKLVREHHPDALIAQGVPQEFVDIANNKLAVINAAYERIAKQRGL”, the “soluble fraction (log2)” value was 0.00775.
In the case of “HMFYNELMNFIVYKDSQKIGKIVNINDKLPQPVFEVLINDKKFMVPIHDDFIEKIDKEKKSIHIVIPDGLL”, the “soluble fraction (log2)” value came to 0.0184.
The same measure for “HMGEQYYVLIDNKQNGPHNINAIQKMIDQNIVNRQTLIWKKGMTDWGNIMDDKDLKEMVNKIP”: -0.0562; for “HMQITDTEAIATTLDEIIAANPKEWERLKAGQEQLVKFFVGQVMRVTKGRANPQVVNDLLKERL”: -0.075; for “HMKKEQVIVPNVVGDTYDVALRKLTDAKLKVGETFPADREGHQGVIEKQSPAAGETVDEDTPVALFFKV”: 0.0344.
In the case of “HMVDPRWETPDENLAEQIKSVMPVMWVYDREAKSFVERPAIDFSFSIFERTTLYIYDKDGNEIGFAR”, the “soluble fraction (log2)” value was -0.028.
The value for “HMFAGEWKQDASGWWYQNDDGSFTRNGWQNISGKQYYFNENGYMLHDTTTPDGKQVGSDGSLV” was 0.0661; that for “HMAVPTHVEFPVVGLQRSGITSLEQAIATVPGVSKAVVNVSDNRIFVDYDPTRSKVSDLLEVVRGAGFTP” was -0.000584; that for “HMSTTDGIERFLASGAVKGIGRTMAARIVEHFGSRTLTVMESEPERLTEVAGIGRKKAESIAASYAELS” was -0.156.
As for “HMIVKQPDIRKQELLDIGVRLYFEAGEKGVSIQQVVKQAGVATGLFYYYFSSKDAFLDEALNDYID”, the “soluble fraction (log2)” value was determined as 0.102.
As to “HMTNELTEIFNSIRLTKKQKELLQSNYLSLRETYFLQGKTAFNLKFKNIAGLGKSTKKVLLEFFEESIE”, the “soluble fraction (log2)” value is -1.83.
“HMLPELIVTTKKGVTVTVTNGVITYSATSNGKATFTVPNYGKWTVSATINGTVISKVVDVTEAKQIPVLLG”: the “soluble fraction (log2)” value was 0.196.
On to “HMIDDPTAVILRLVSEKQVIRRDDVVKALSVTPQKAYRLLKTMTTGGLLTRSGARRTTVYGLPDARER”, for which the “soluble fraction (log2)” value is -0.0945.
The same measure for “HMRPSGTAGILRYLSSGAIRGIGATTAQRLVSEFGEKTLDVMENEPERVAMLKGISKSKAEDFSLQLKQS”: 0.0105; for “HMRAEPNSNYSLAIIYKNRYDIAVKKKDAVKEVEYGKMVYEYLNKYVVLSGNKSAKYKKILNYFSSY”: -3.04.
The same measure for “HMEPKQIEVPNLVGISSAAARQTLSALGLHAVVKDSIWSETERIDTVLEQNPAGGALIKPEGTVYLRVSR”: 0.033; for “HMGKPVTMELLIPYSQGSLVHRISEAGEVAKTEYQNDGTYMQVTFTPSAKDHALMQEVASYRI”: 0.184.
